In patent US11389485:

Tests used:
[1] = target: CD33 variant having the fragment encoded by exon 2 deleted (CD33ex2) (human) (UniProt P20138); test: cell-based or functional assay
[2] = target: human CD33, full-length (CD33M) (human) (UniProt P20138); test: cell-based or functional assay

B1: gemtuzumab ozogamicin (antibody, INN chains, looked up, V domains shown)
VH: EVQLVQSGAEVKKPGSSVKVSCKASGYTITDSNIHWVRQAPGQSLEWIGYIYPYNGGTDYNQKFKNRATLTVDNPTNTAYMELSSLRSEDTAFYYCVNGNPWLAYWGQGTLVTVSS
VL: DIQLTQSPSTLSASVGDRVTITCRASESLDNYGIRFLTWFQQKPGKAPKLLMYAASNQGSGVPSRFSGSGSGTEFTLTISSLQPDDFATYYCQQTKEVPWSFGQGTKVEVKR
modifications: ozogamicin (calicheamicin) conjugate
In the case of B1, the IC50 of GO cytotoxicity, HSPC CD33ex2 [1] is reported as 0.246 µg/mL, the IC50 of GO cytotoxicity (viable cell number, Celltiter Glo, 72 h), HL-60 cells [2] is reported as 0.0355 µg/mL and the IC50 of GO cytotoxicity (viable cell number, Celltiter Glo, 72 h), THP-1 cells [2] is reported as 0.0163 µg/mL. It also gave an IC50 of GO cytotoxicity, wild-type HSPC [2] of 0.0934 µg/mL.
